From patent US6734342B2, “Theobromine synthase polypeptide of coffee plant and the gene encoding said polypeptide” (Nara Institute of Science and Technology, priority 2000, dated 2004)

B1: MTL3: Coffea arabica polypeptide homologous to MXMT1, encoded by clone #35 cDNA (SEQ ID NO: 8) (protein, listed as Caffea arabica)
chain: MELQEVLRMNGGEGDTSYAKNSAYNQLVLAKVKPVLEQCVRELLRANLPNINKCIKVADLGCASGPNTLLTVRDIVQSIDKVGQEKKNELERPTIQIFLNDLFPNDFNSVFKLLPSFYRKLEKENGRKIGSCLIGAMPGSFYSRLFPEESMHFLHSCYCLQWLSQVPSGLVTELGISTNKGSIYSSKASRLPVQKAYLDQFTKDFTTFLRIHSEELFSHGRMLLTCICKGVELDARNAIDLLEMAINDLVVEGHLEEEKLDSFNLPVYIPSAEEVKCIVEEEGSFEILYLETFKVLYDAGFSIDDEHIKAEYVASSVRAVYEPILASHFGEAIIPDIFHRFAKHAAKVLPLGKGFYNNLIISLAKKPEKSDV
B2: MTL2: Coffea arabica polypeptide homologous to MXMT1, encoded by clone #6 cDNA (SEQ ID NO: 6) (protein, listed as Caffea arabica)
chain: MELQEVLHMNGGEGDASYAKNSSFNQLVLAKVKPVLEQCVGELLRANLPNINKCIKVADLGCASGPNTLLTVRDIVQSIDDVRQEMKNELERPTIQVFLTDLFQNDFNSVFMLLPSFYRKLEKENGRKIGSCLIAAMPGSFHGRLFPEESMHFLHSSYSLQFLSQVPSGLVTELGITANKRSIYSSKASPPPVQKAYLDQFTKDFTTFLRIRSEELLSRGRMLLTCICKGDEFDGPNTMDLLEMAINDLVVEGHLEEEKLDSFNVPIYAASVEELKCIVEEEGSFEILYLETFKLRYDAGFSIDDDCQVRSHSPEYSDEHARAAHVASLLRSVYEPILANHFGEAIIPDIFHRFATNAAKVIRLGKGFYNNLIISLAKKPEKSDI
B3: MXMT1: theobromine synthase polypeptide of Coffea arabica, amino acids 1 to 378 of SEQ ID NO: 1, expressed in E. coli as GST fusion (protein, listed as Caffea arabica)
chain: MELQEVLHMNEGEGDTSYAKNASYNLALAKVKPFLEQCIRELLRANLPNINKCIKVADLGCASGPNTLLTVRDIVQSIDKVGQEEKNELERPTIQIFLNDLFQNDFNSVFKLLPSFYRKLEKENGRKIGSCLISAMPGSFYGRLFPEESMHFLHSCYSVHWLSQVPSGLVIELGIGANKGSIYSSKGCRPPVQKAYLDQFTKDFTTFLRIHSKELFSRGRMLLTCICKVDEFDEPNPLDLLDMAINDLIVEGLLEEEKLDSFNIPFFTPSAEEVKCIVEEEGSCEILYLETFKAHYDAAFSIDDDYPVRSHEQIKAEYVASLIRSVYEPILASHFGEAIMPDLFHRLAKHAAKVLHMGKGCYNNLIISLAKKPEKSDV
B4: SEQ.ID. NO: 3: Coffea arabica polypeptide homologous to MXMT1, encoded by clone #1 cDNA (SEQ ID NO: 4) (protein, listed as Caffea arabica)
chain: MELQEVLHMNGGEGEASYAKNSSFNQLVLAKVKPVLEQCVRELLRANLPNINKCIKVADLGCASGPNTLLTVWDTVQSIDKVKQEMKNELERPTIQVFLTDLFQNDFNSVFMLLPSFYRKLEKENGRKIGSCLIAAMPGSFHGRLFPEESMHFLHSSYSLQFLSQVPSGLVTELGITANKRSIYSSKASPPPVQKAYLDQFTKDFTTFLRMRSEELLSRGRMLLTCICKGDECDGPNTMDLLEMAINDLVAEGRLGEEKLDSFNVPIYTASVEEVKCMVEEEGSFEILYLQTFKLRYDAGFSIDDDCQVRSHSPVYSDEHARAAHVASLIRSVYEPILASHFGEAIIPDIFHRFATNAAKVIRLGKGFYNNLIISLAKKPEKSDI

How the values were obtained:
[1] = Measurement of enzymatic (methyl transferase) activity of GST fusion proteins by thin layer chromatography; format: biochemical; details: for activity as theobromine synthase: polypeptides with higher than 80% homology to SEQ.ID. NO: 1; for activity as a methyl transferase: substrates xanthine, 7-methylxanthine, theobromine, paraxanthine, theophylline, 200 μM each
Method: The open reading frame regions of MTL1 (Clone #1), MTL2 (Clone #6), MTL3 (Clone #35) and MXMT1 (Clone #45) were amplified by PCR (polymerase chain reaction). Then, they were optionally cloned into pGEX 4T-2 vector (Pharmacia) and E. coli (JM109) cells were transformed with the resulting plasmids. The obtained E. coli cells were cultured in LB liquid medium containing ampicillin. When OD600 of the culture reached to 0.5, IPTG (isopropyl thio-β-D-galactoside) was added to it and the final concentration of IPTG was made to 1 mM, then the mixture was further cultured at 16° C. for 6 hours. E. coli was desrupted by a sonicator and the protein of the purpose was purified by glutathione Sepharose 4B as a GST (glutathione S-transferase) fusion protein. Concentration of the protein was measured by the Bradford method. Each of the GST fusion protein (500 ng) was separated by SDS-PAGE (sodium dodecyl sulfate polyacrylamide gel electro-phoresis), then it was stained by CBB (coumasie Brilliant Blue) to confirm purification.
Measurement of enzymatic activity was performed using thin layer chromatography (TLC), based on the method of Kato et al. (Plant Physiol., 1996, 98, 629-636). In concrete, the reaction mixture of 100 μl, containing 100 mM Tris-HCl (pH 7.5), 200 μM substrate (xanthine, 7-methylxanthine, theobromine, paraxanthine, theophylline), 4 μM ^14C-labeled S-adenosylmethionine, 200 μM MgCl2, 200 ng GST fusion protein, was incubated at 27° C. for 2 hours. After the reaction, the resulting mixture was extracted with 1 ml of chloroform, the chloroform layer was recovered, then chloroform was evaporated by speed back concentrator. The residue was dissolved in 5 μl of 50% methanol solution, then the solution was developed by TLC (solvent for development was water:acetic acid:n-butanol=2:1:4, v/v/v). After the development, signal of radio activity was detected by image analyzer (Fuji BAS 2000). The result of enzymatic activity, which was measured on the fusion proteins derived from MTL2, MTL3 and MXMT1 using xanthine (X), 7-methylxanthine (7-Mx), theobromine (Tb), paraxanthine (Px) and theophylline (Tp) as the substrate, was shown in FIG. 5.

[2] = Enzymatic activity measurement and identification of the reaction product by HPLC; format: biochemical; details: 200 μM 7-methylxanthine, 50 μM S-adenosylmethionine, 200 ng GST fusion protein, 27° C., 2 hours; UV 254 nm (FIG. 6)
Method: Using high performance liquid chromatography (HPLC), enzymatic activity of the MXMT1 fusion protein was measured and reaction product obtained from the enzymatic reaction was identified. The reaction mixture of 100 μl, containing 100 mM Tris-HCl (pH 7.5), 200 μM of substrate (7-methylxanthine, paraxanthine, theobromine), 50 μM of S-adenosylmethionine, 200 μM of MgCl2, 200 ng of GST fusion protein, was incubated at 27° C. for 2 hours. After incubation, the mixture was extracted with 1 ml of chloroform, the chloroform layer was recovered, then chloroform was evaporated by a speed back concentrator. The residue was dissolved in 50 μl of 12% acetonitrile. Then the solution was fractionated by HPLC (Shodex Rspak DS-613 column) provided with UV detection system. As the solution for development, 12% acetonitrile was used and the signal was detected for absorbance of 254 nm.
The MXMT1 fusion protein was reacted with S-adenosylmethionine and 7-methylxanthine, which is the substrate and the reaction product was analyzed by HPLC. […] Furthermore, S-adenosylmethionine and 7-methylxanthine was reacted with MXMT1 fusion protein and then theobromine was added to the reaction mixture. The peak position of the reaction product detected in FIG. 6A coincided with the position of theobromine, which was analyzed as the standard compound. […]

Molecule | activity as theobromine synthase [1] | activity as a methyl transferase ([1]; TLC (FIG. 5)) | activity to synthesize theobromine, using 7-methylxanthine as the substrate ([1]; 200 μM 7-methylxanthine, 4 μM 14C-S-adenosylmethionine, 200 ng GST fusion protein, 27° C., 2 hours, TLC (FIG. 5)) | relative activity to synthesize caffeine, using paraxanthine as the substrate ([1]; 200 μM paraxanthine, relative to the activity with 7-methylxanthine, TLC (FIG. 5)) [%] | reaction product identified by HPLC [2]
B1 | did not exhibit activity as theobromine synthase | did not exhibit activity as a methyl transferase |  |  | 
B2 | did not exhibit activity as theobromine synthase | did not exhibit activity as a methyl transferase |  |  | 
B3 |  |  | potent activity to synthesize theobromine | 15 | theobromine was formed
B4 | did not exhibit activity as theobromine synthase |  |  |  | 
